Experimental data as given in patent publication US20080026996A1, “Selective Vpac2 Receptor Reptide Agonists” (ELI LILLY AND COMPANY, priority 2004, published 2008).
Where no end group is shown, it is not given here. [ ]: non-standard residue; d: D form. The star is where a group is joined. Met(O) = CS(=O)CC[C@H](N)C(=O)O; NMeV = CN[C@H](C(=O)O)C(C)C; NMeA = CN[C@@H](C)C(=O)O; Hexanoyl = CCCCCC(=O)*; Aib = CC(C)(N)C(=O)O; Mpa = O=C(O)CCS

T1: human VPAC2 receptor (human, UniProt P41587 24-438)
T1 sequence (looked up): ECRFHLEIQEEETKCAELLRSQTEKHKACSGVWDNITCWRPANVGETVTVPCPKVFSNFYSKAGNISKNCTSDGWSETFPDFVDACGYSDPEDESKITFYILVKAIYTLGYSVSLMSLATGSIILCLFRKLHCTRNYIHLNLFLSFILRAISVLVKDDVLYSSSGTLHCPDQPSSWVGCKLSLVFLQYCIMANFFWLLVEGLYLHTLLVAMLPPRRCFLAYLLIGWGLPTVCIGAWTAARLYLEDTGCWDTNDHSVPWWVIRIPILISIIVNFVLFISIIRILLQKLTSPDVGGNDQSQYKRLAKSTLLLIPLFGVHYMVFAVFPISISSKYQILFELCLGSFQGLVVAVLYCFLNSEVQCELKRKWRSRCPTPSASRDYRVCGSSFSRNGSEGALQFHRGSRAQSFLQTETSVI


Molecular target: T1, human VPAC2 receptor
Test: cell-based or functional assay

Binder | EC50 cAMP, Alpha Screen | EC50 cAMP, DiscoveRx
HSDAVFTDNYTRLRKQVAAKKYLQSIKRGGPSSGAPPPS [P82] | 15.2 nM | –
HSDAVFTDNYTRLRKQVAAKKYLQSIKKGGPSSGAPPPS [P85] | 22.2 nM | –
HSDAVFTDNYTRLRKQVAAKKYLQSIKNGRPSSGAPPPS [P92] | 10.2 nM | 8.2 nM
Hexanoyl-HSDAVFTDNYTRLRKQVAAKKYLQSIKNGRPSSGAPPPS [P271] | 0.12 nM | –
Hexanoyl-HSDIVFTDNYTRLRKQVAAKKYLQSIKNKRYGGPSSGAPPPS [P221] | 1.98 nM | –
Hexanoyl-HSDLVFTDNYTRLRKQVAAKKYLQSIKNKRYGGPSSGAPPPS [P223] | 5.82 nM | –
Hexanoyl-HSDAVFTDNYTRLRK(Ac)QVAAKK(Ac)YLQSIKNKRYGGPSSGAPPPS [P194] | 0.13 nM | –
Hexanoyl-HSDAVFTDNYTRLRKQVAAKKY[Aib]QSIKNKRYGGPSSGAPPPS (ends and bridges not checked) [P236] | 0.12 nM | –
Hexanoyl-HSDAVFTDNYTRLRKQVAAKKALQSIKNKRYGGPSSGAPPPS [P229] | 2.6 nM | –
Hexanoyl-HSD[dA]VFTDNYTRLRKQVAAKKYLQSIKNKRYGGPSSGAPPPS [P207] | 0.86 nM | –
Hexanoyl-HSDAVFTDNYTRLQ[Aib]QVAAKKYLQSIKNKRYGGPSSGAPPPS (ends and bridges not checked) [P258] | 0.17 nM | –
Hexanoyl-HSDAVFTDNYTRLR[Aib]QVAAAKYLQSIKNKRYGGPSSGAPPPS (ends and bridges not checked) [P263] | 0.07 nM | –
Hexanoyl-HSDAVFTDNYTRLR[Aib]QVAAVKYLQSIKNKRYGGPSSGAPPPS (ends and bridges not checked) [P262] | 0.24 nM | –
Hexanoyl-HSDAVFTDNYTRLR[Aib]QVAALKYLQSIKNKRYGGPSSGAPPPS (ends and bridges not checked) [P265] | 0.21 nM | –
[Mpa]HSDAVFTDNYTRLLAKLALQKYLQSIKNKRYGGPSSGAPPPS [P205] | 1.14 nM | –
Hexanoyl-HSDA[Aib]FTDNYTRLRKQVAAKKYLQSIKNKRYGGPSSGAPPPS (ends and bridges not checked) [P212] | 0.12 nM | –
Hexanoyl-HSD[Aib]VFTDNYTRLRKQVAAKKYLQSIKNKRYGGPSSGAPPPS (ends and bridges not checked) [P209] | 0.1 nM | –
Hexanoyl-HSDAVFTDNYTRL[Aib]KQVAAKQYLQSIKNKRYGGPSSGAPPPS (ends and bridges not checked) [P249] | 0.93 nM | –
Hexanoyl-HSDAVFTDNYTRL[Aib]KQVAAVKYLQSIKNKRYGGPSSGAPPPS (ends and bridges not checked) [P269] | 1.02 nM | –
Hexanoyl-HSDAVFTDNYTRL[Aib]KQVAALKYLQSIKNKRYGGPSSGAPPPS (ends and bridges not checked) [P259] | 1.08 nM | –
Hexanoyl-HSDAVFTDNYTRL[Aib]KQVAAAKYLQSIKNKRYGGPSSGAPPPS (ends and bridges not checked) [P260] | 0.83 nM | –
Hexanoyl-HSDAVFTDQYTRLRRQVAARKYLQSIRQGGPSSGAPPPS [P220] | 0.12 nM | –

Binder | EC50 cAMP, Alpha Screen | EC50 cAMP, DiscoveRx
Hexanoyl-HSDAVFTDNYTRLRKQVAAKKYTQSIKNKRYGGPSSGAPPPS [P232] | 1.94 nM | –
Hexanoyl-HSDAVFTDNYTRLQKQVAA[Aib]KYLQSIKNKRYGGPSSGAPPPS (ends and bridges not checked) [P250] | 0.18 nM | –
Hexanoyl-HSDAVFTDNYTRLA[Aib]QVAA[Aib]KYLQSIKNKRYGGPSSGAPPPS (ends and bridges not checked) [P301] | 0.89 nM | –
Hexanoyl-HSDAVFTDNYTRLR[Aib]QAAA[Aib]KYLQSIKNKRYGGPSSGAPPPS (ends and bridges not checked) [P324] | 0.23 nM | –
Hexanoyl-HSDAVFTDNYTRLL[Aib]QVAA[Aib]KYLQSIKNKRYGGPSSGAPPPS (ends and bridges not checked) [P317] | 0.36 nM | –
Hexanoyl-HSDAVFTDNYTRLR[Aib]QVAA[Aib]AYLQSIKNKRYGGPSSGAPPPS (ends and bridges not checked) [P341] | 0.38 nM | –
Hexanoyl-HSDAVFTDNYTRLQ[Aib]QVAA[Aib]KYLQSIKNKRYGGPSSGAPPPS (ends and bridges not checked) [P302] | 0.45 nM | –
Hexanoyl-HSDAVFTDNYTRLRKQVAAKKYFQSIKNKRYGGPSSGAPPPS [P231] | 0.26 nM | –
Hexanoyl-HSDAVFTDNYTRLQKQVAAQKYLQSIKNKRYGGPSSGAPPPS [P252] | 0.26 nM | –
Hexanoyl-HSDAVFTDNYTRLRKQVAAKKYAQSIKNKRYGGPSSGAPPPS [P235] | 0.82 nM | –
Hexanoyl-HSDAVFTDNYTRLRKQVAGKKYLQSIKNKRYGGPSSGAPPPS [P275] | 0.32 nM | –
Hexanoyl-HSDAVFTDNYTRLRKQVAAKKYVQSIKNKRYGGPSSGAPPPS [P234] | 0.16 nM | –
Hexanoyl-HSDAVFTDNYTRLRKQVAAKKYIQSIKNKRYGGPSSGAPPPS [P233] | 0.11 nM | –
Hexanoyl-HSDAVFTDNYTRLRKQLAAKKYLQSIKNKRYGGPSSGAPPPS [P290] | 0.22 nM | –
Hexanoyl-HSDAVFTDNYTRLQKQVAAKQYLQSIKNKRYGGPSSGAPPPS [P253] | 0.46 nM | –
Hexanoyl-HSDALFTDNYTRLRKQVAAKKYLQSIKNKRYGGPSSGAPPPS [P289] | 0.16 nM | –
[Met(O)]HSDAVFTDNYTRLRKQVAAKKYLQSIKNKRYGGPSSGAPPPS (ends and bridges not checked) [P199] | 29.6 nM | –
Hexanoyl-HSDAVFTDNYTRLRKQVAAKK[Aib]LQSIKNKRYGGPSSGAPPPS (ends and bridges not checked) [P228] | 3.48 nM | –
Hexanoyl-HSDA[dV]FTDNYTRLRKQVAAKKYLQSIKNKRYGGPSSGAPPPS [P210] | 0.91 nM | –
Hexanoyl-HSD[NMeA]VFTDNYTRLRKQVAAKKYLQSIKNKRYGGPSSGAPPPS [P208] | 50.1 nM | –
Hexanoyl-HSDA[NMeV]FTDNYTRLRKQVAAKKYLQSIKNKRYGGPSSGAPPPS [P211] | 989 nM | –
